Our source for the pKa values is article PMC8693174.

Common to all, as to experiment: potentiometry
What all share (conditions): 25 °C; I = 0.1 M (KNO3); samples in 96 mM KNO3/4 mM HNO3; none (96 mM KNO3/4 mM HNO3); Free peptide, no metal, under argon

The target in series [1] is His2 (position 2, ----RHDSG--).
Series [2] concerns the target Nterm1 (position 1, -----RHDSG-).
The target in series [3] is Asp3 (position 3, ---RHDSG---).

B1: Amyloid-beta 5-9 peptide (Abeta5-9), Arg-His-Asp-Ser-Gly-NH2 (Homo sapiens (synthetic peptide)) (peptide)
chain: RHDSG
Take B1: the values for the pKa in series [1], in series [2] and in series [3] were 6.13, 7.37 and 3.17, respectively.
